According to paper PMC10697951 (2023):

Target: H2A.Z(D97N/S98K)-containing nucleosome core particle with wild-type H4 (H4K20) (UniProt P06899 1-126; P68431 1-136; P62805 1-103)
Assay: MST

B1: SUV420H1(1–390), wild type, with N-terminal 6× His-TEV tag (domain or fragment)
chain: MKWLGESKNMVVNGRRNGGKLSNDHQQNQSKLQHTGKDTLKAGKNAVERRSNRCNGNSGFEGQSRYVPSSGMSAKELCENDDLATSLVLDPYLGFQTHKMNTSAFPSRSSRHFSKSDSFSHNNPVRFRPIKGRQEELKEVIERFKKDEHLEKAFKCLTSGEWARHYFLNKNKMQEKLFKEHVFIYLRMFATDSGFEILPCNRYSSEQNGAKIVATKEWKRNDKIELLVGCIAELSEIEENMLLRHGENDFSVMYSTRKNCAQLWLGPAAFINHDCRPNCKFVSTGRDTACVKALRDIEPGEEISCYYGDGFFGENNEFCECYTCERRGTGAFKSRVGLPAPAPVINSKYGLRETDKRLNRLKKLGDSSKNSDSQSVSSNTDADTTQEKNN
modifications: RED-tris-NTA dye on the His tag
- Kd: 219 nM
